What was measured:
[1] = biological target: T1, full length murine ALCAM1-583 (Mus musculus, UniProt Q61490); assay: Ang II-induced p65/PCNA expression in AT1R-CHO cells transfected with full length murine ALCAM (qRT-PCR); format: cell-based; conditions: Ang II 1 μM 2 h, co-transfection of the construct, vs pCIneo (FIG. 3B, 5B)
T1 construct: host or cells: AT1R-CHO (CHO stably transfected with human AT1R-Rluc8), transient transfection; untagged clone in pCMV6
T1 sequence (Q61490 28-583): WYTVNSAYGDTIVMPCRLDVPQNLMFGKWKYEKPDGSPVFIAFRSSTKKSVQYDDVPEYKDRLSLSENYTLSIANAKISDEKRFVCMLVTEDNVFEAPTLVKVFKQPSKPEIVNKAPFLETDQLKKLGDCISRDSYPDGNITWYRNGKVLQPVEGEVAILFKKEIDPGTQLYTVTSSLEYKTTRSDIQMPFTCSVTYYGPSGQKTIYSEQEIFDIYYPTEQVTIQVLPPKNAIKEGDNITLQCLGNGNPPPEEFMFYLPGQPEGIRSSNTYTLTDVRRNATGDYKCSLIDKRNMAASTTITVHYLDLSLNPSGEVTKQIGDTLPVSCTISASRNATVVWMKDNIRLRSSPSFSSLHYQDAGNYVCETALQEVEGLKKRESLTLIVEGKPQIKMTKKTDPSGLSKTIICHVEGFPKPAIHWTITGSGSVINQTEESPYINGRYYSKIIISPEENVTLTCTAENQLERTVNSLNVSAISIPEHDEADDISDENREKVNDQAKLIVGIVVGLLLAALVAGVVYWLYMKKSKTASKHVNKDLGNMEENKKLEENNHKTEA
Method: (§1) Adult retinal pigment epithelial (ARPE) cells were cultured in Dulbecco's modified Eagle's medium (DMEM)/F12 endothelial cell growth supplement (ECGS) supplemented media. Chinese Hamster Ovary (CHO) cells were cultured using F12 media (10% FCS with 2 mM glutamine). Human microvascular endothelial cells (HMEC) were cultured in MCDB 131 medium (10% FCS with 10 mM glutamine, EGF and hydrocortisone).
(§2) 100 ng of AT1R-Rluc8 construct was transfected into CHO cells using Lipofectamine 2000 (Thermo). Stable transfectants were selected using G418. AT1R-CHO were then transiently transfected with the IgSF CAM and/or RAGE constructs using Lipofectamine 2000 (Invitrogen) and incubated for 16h.
(§3) Oligonucleotides were designed and ordered to generate the ALCAM, BCAM and MCAM intracellular (cytosolic) domains. These included a 5′ NheI site, Kozak sequence and initiating Methionine and then DNA sequences corresponding to ALCAM residues 552-583, BCAM residues 569-628 and MCAM residues 584-637 respectively (Note that as residue 551 of ALCAM is Methionine, the cytosolic tail of ALCAM effectively corresponded to residues 551-583). The pCIneo parental vector was digested with NheI and NotI restriction enzymes, and the DNA of the fragments of the ALCAM, BCAM and MCAM tails/cytosolic domains were ligated into the digested plasmid. After transformation and recovery, colonies were screened and individual clones sequenced. The sequence of the insert was confirmed by DNA sequencing (Micromon, Monash University). A full-length clone of Mouse ALCAM (BC027280) was purchased from Origene. The untagged clone was supplied in the vector pCMV6. […]
(§4) After 2 hours of exposure to Ang II (1 μM) cells were placed in Trizol, mRNA extracted and cDNA synthesized. Changes in the gene expression of the NFκB subunit, p65 (RelA) or NFκB-activated target genes (e.g ICAM-1) were estimated by quantitative real-time RT-PCR, performed using the TaqMan system based on real-time detection of accumulated fluorescence (ABI Prism 7700, Perkin-Elmer Inc, PE Biosystems, Foster City, Calif., USA). […]

[2] = biological target: T2, human ALCAM (ALCAM1-583, cytosolic tail ALCAM551-583) (Homo sapiens, UniProt Q13740); assay: Ang II-induced p65/PCNA expression in AT1R-CHO cells transfected with human ALCAM (full length or cytosolic tail); format: cell-based; conditions: Ang II 1 μM, co-transfection (FIG. 3G, 1E)
T2 construct: expressed in transfected cells; host or cells: AT1R-CHO (CHO stably transfected with human AT1R-Rluc8), transient transfection
T2 sequence (Q13740 551-583): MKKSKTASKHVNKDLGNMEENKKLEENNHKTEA
Method: as §1, §2
(§5) Oligonucleotides were designed and ordered to generate the ALCAM, BCAM and MCAM intracellular (cytosolic) domains. These included a 5′ NheI site, Kozak sequence and initiating Methionine and then DNA sequences corresponding to ALCAM residues 552-583, BCAM residues 569-628 and MCAM residues 584-637 respectively (Note that as residue 551 of ALCAM is Methionine, the cytosolic tail of ALCAM effectively corresponded to residues 551-583). The pCIneo parental vector was digested with NheI and NotI restriction enzymes, and the DNA of the fragments of the ALCAM, BCAM and MCAM tails/cytosolic domains were ligated into the digested plasmid. After transformation and recovery, colonies were screened and individual clones sequenced. The sequence of the insert was confirmed by DNA sequencing (Micromon, Monash University). A full-length clone of Mouse ALCAM (BC027280) was purchased from Origene. The untagged clone was supplied in the vector pCMV6. Overlapping DNA sequences were ordered to generate the ALCAM559-580 fragment oligonucleotide. These included a 5′ NheI site, Kozak sequence and initiating Methionine and then DNA sequences corresponding to ALCAM residues 559-580. The pCIneo parental vector was digested with NheI and NotI restriction enzymes, and the ALCAM559-580 construct DNA was ligated into the digested plasmid. After transformation and recovery, colonies were screened and individual clones sequenced.
(§6) After 2 hours of exposure to Ang II (1 μM) cells were placed in Trizol, mRNA extracted and cDNA synthesized. Changes in the gene expression of the NFκB subunit, p65 (RelA) or NFκB-activated target genes (e.g ICAM-1) were estimated by quantitative real-time RT-PCR, performed using the TaqMan system based on real-time detection of accumulated fluorescence (ABI Prism 7700, Perkin-Elmer Inc, PE Biosystems, Foster City, Calif., USA). Gene expression was normalized to 18S mRNA and reported as fold change compared to the level of expression in untreated control mice/cells, which were given an arbitrary value of 1.

[3] = biological target: T1, full length murine ALCAM1-583; assay: S100A8/A9-induced PCNA expression in CHO cells transfected with full length murine ALCAM; format: cell-based; conditions: S100A8/A9 1 μM 2 h, co-transfection (FIG. 4A)
Method: as §1
as §3, with “plasmid.” for “plasmid. After transformation and recovery, colonies were screened and individual clones sequenced. The sequence of the insert was confirmed by DNA sequencing (Micromon, Monash University). A full-length clone of Mouse ALCAM (BC027280) was purchased from Origene. The untagged clone was supplied in the vector pCMV6.”
as §4, with “After 2 hours of exposure to Ang II (1 μM) cells were placed in Trizol, mRNA extracted and cDNA synthesized.” left out

[4] = biological target: T3, cytosolic tail of MCAM, MCAM584-637 (Homo sapiens, UniProt P43121); assay: Ang II-induced ICAM-1 expression in ARPE cells transfected with cytosolic tail of MCAM; format: cell-based; design: corresponds to residues 584-637 of MCAM plus an initiating Methionine; initiating Methionine (N); expressed in transfected cells; host or cells: human ARPE (adult retinal pigment epithelial) cells; insert in pCIneo; conditions: Ang II 1 μM, co-transfection (FIG. 2B)
T3 sequence (P43121 with tags, fused parts or gaps): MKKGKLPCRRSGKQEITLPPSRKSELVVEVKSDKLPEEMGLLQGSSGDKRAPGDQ
Method: as §1
(§7) Oligonucleotides were designed and ordered to generate the ALCAM, BCAM and MCAM intracellular (cytosolic) domains. These included a 5′ NheI site, Kozak sequence and initiating Methionine and then DNA sequences corresponding to ALCAM residues 552-583, BCAM residues 569-628 and MCAM residues 584-637 respectively (Note that as residue 551 of ALCAM is Methionine, the cytosolic tail of ALCAM effectively corresponded to residues 551-583). […]
as §4

[5] = biological target: T4, cytosolic tail of ALCAM, ALCAM551-583 (Homo sapiens, UniProt Q13740); assay: Ang II-induced ICAM-1 expression in ARPE cells transfected with cytosolic tail of ALCAM; format: cell-based; conditions: Ang II 1 μM
T4 construct: corresponds to residues 551-583 of ALCAM, with initial Methionine already present; expressed in transfected cells; host or cells: human ARPE (adult retinal pigment epithelial) cells; insert in pCIneo
T4 sequence (Q13740 551-583 limits assumed): T2 sequence (Q13740 551-583)
Method: as §1, §7, §4

[6] = tested on: AT1R-CHO cells; assay: p65 expression in AT1R-CHO cells expressing the truncated construct alone; format: cell-based, Chinese Hamster; conditions: for induction of p65 expression by Ang II when the construct alone is expressed: AT1R-CHO cells, Ang II 1 μM (FIG. 3A, 5A, 5B); for induction of p65 expression following exposure to S100A8/9 when the construct alone is expressed: S100A8/9 1 μM (FIG. 4A)
Method: as §1, §2, §5, §6

[7] = biological target: T5, cytosolic tail of BCAM, BCAM569-628 (Homo sapiens, UniProt P50895); assay: Ang II-induced ICAM-1 expression in ARPE cells transfected with cytosolic tail of BCAM; format: cell-based; design: corresponds to residues 569-628 of BCAM plus an initiating Methionine; initiating Methionine (N); expressed in transfected cells; host or cells: human ARPE (adult retinal pigment epithelial) cells; insert in pCIneo; conditions: Ang II 1 μM, treatment with oligopeptide (FIG. 2C)
T5 sequence (P50895 with tags, fused parts or gaps): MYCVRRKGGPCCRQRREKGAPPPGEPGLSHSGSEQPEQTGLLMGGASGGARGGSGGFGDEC
Method: as §1, §7, §4

[8] = biological target: T6, cytosolic tail of human EpCAM, EpCAM289-314 (Homo sapiens, UniProt P16422); assay: Ang II-induced p65 expression in AT1R-CHO cells transfected with cytosolic tail of EpCAM; format: cell-based; conditions: Ang II 1 μM, co-transfection (FIG. 3J)
T6 construct: corresponds to residues 289-314 of EpCAM plus an initiating Methionine; initiating Methionine (N); expressed in transfected cells; host or cells: AT1R-CHO (CHO stably transfected with human AT1R-Rluc8), transient transfection
T6 sequence (P16422 with tags, fused parts or gaps limits assumed): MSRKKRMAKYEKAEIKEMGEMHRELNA
Method: as §1, §2, §6

[9] = biological target: T3, cytosolic tail of MCAM, MCAM584-637; assay: Ang II-induced p65 expression in AT1R-CHO cells transfected with cytosolic tail of MCAM; format: cell-based; design: corresponds to residues 584-637 of MCAM plus an initiating Methionine; initiating Methionine (N); expressed in transfected cells; host or cells: AT1R-CHO (CHO stably transfected with human AT1R-Rluc8); insert in pCIneo; conditions: Ang II 1 μM, co-transfection (FIG. 3I)
Method: as §1, §2
(§8) Oligonucleotides were designed and ordered to generate the ALCAM, BCAM and MCAM intracellular (cytosolic) domains. […]
as §4

[10] = biological target: T5, cytosolic tail of BCAM, BCAM569-628; assay: Ang II-induced p65 expression in AT1R-CHO cells transfected with cytosolic tail of BCAM; format: cell-based; design: corresponds to residues 569-628 of BCAM plus an initiating Methionine; initiating Methionine (N); expressed in transfected cells; host or cells: AT1R-CHO (CHO stably transfected with human AT1R-Rluc8); insert in pCIneo; conditions: Ang II 1 μM, co-transfection (FIG. 3H)
Method: as §1, §2, §8, §4

[11] = biological target: T7, cytosolic tail of human CADM4, CADM4346-388 (Homo sapiens, UniProt Q8NFZ8); assay: Ang II-induced p65 expression in AT1R-CHO cells transfected with cytosolic tail of CADM4; format: cell-based; conditions: Ang II 1 μM, co-transfection (FIG. 3K)
T7 construct: initiating Methionine (N); expressed in transfected cells; host or cells: AT1R-CHO (CHO stably transfected with human AT1R-Rluc8), transient transfection
T7 sequence (Q8NFZ8 with tags, fused parts or gaps): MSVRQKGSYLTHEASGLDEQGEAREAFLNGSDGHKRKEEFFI
Method: as §1, §2, §6

Sequence	induction of p65-NFκB expression by Ang II via AT1R-dependent transactivation of full length murine ALCAM1-583 [1]	induction of p65-NFκB expression by Ang II via transactivation of the cytosolic tail of human ALCAM, ALCAM551-583 [2]	ligand-dependent signalling (PCNA expression) via murine ALCAM activated by S100A8/A9 [3]	NFKB-dependent induction of ICAM-1 gene expression by Ang II via MCAM584-637 [4]	NFKB-dependent induction of ICAM-1 gene expression by Ang II via ALCAM551-583 ([5]; co-transfection (FIG. 2A))	induction of p65 expression by Ang II when the construct alone is expressed [6]	induction of p65 expression following exposure to S100A8/9 when the construct alone is expressed [6]	proinflammatory signalling (ICAM-1) induced by Ang II mediated by the cytosolic tail of ALCAM ([5]; treatment with oligopeptide (FIG. 2C))	NFKB-dependent induction of ICAM-1 gene expression by Ang II via BCAM569-628 [7]	induction of p65-NFκB expression by Ang II via transactivation of EpCAM289-314 [8]	induction of p65-NFκB expression by Ang II via transactivation of MCAM584-637 [9]	induction of p65-NFκB expression by Ang II via transactivation of BCAM569-628 [10]	induction of p65-NFκB expression by Ang II via transactivation of CADM4346-388 [11]
MGEERKAPENQEEEEERAELNQ [RAGE370-390]	inhibited	inhibited	inhibited	inhibited	inhibited	no induction of p65 expression is observed	no induction of p65 expression is observed						
MLWQRRQRRGEERKAPENQEEEEERAELNQAEEPEAGESSTGGP (Synthetic peptide - Truncated amino acid sequence of human RAGE protein corresponding to residues 362 to 404 of human RAGE protein with a mutation of Serine 391 to Alanine plus an initiating methionine residue) [S391A-RAGE362-404, entire cytosolic tail of RAGE with serine391 mutated to alanine]								inhibited	inhibited				
QEEEEERAELNQ (Synthetic peptide - Truncated amino acid sequence corresponding to residues 379 to 390 of human RAGE protein) [RAGE379-390]		prevents induction				no induction of p65 expression is observed	no induction of p65 expression is observed			prevents induction	prevents induction	prevents induction	prevents induction
